# Results: patent publication US20040054158A1
# B1: mICOS-mIgG2am (Fc fusion)
# chain: EINGSADHRMFSFHNGGVQISCKYPETVQQLKMRLFREREVLCELTKTKGSGNAVSIKNPMLCLYHLSNNSVSFFLNNPDSSQGSYYFCSLSIFDPPPFQERNLSGGYLHIYESQLCCQLKLEPRGPTIKPCPPCKCPAPNLEGGPSVFIFPPKIKDVLMISLSPIVTCVVVDVSEDDPDVQISWFVNNVEVHTAQTQTHREDYNSTLRVVSALPIQHQDWMSGKAFACAVNNKDLPAPIERTISKPKGSVRAPQVYVLPPPEEEMTKKQVTLTCMVTDFMPEDIYVEWTNNGKTELNYKNTEPVLDSDGSYFMYSKLRVEKKNWVERNSYSCSVVHEGLHNHHTTKSFSRTPGK
# Assays:
# [1] = target: GL50 (ICOS-ligand) on mouse cells (WEHI 231, undifferentiated CCE ES cells, Balb/C and RAG1 -/- splenocytes) (mouse) (UniProt Q9JHJ8); test: flow cytometry, Balb/C splenocytes, anti-CD3 stained subset
# [2] = target: GL50 (ICOS-ligand) on mouse cells (WEHI 231, undifferentiated CCE ES cells, Balb/C and RAG1 -/- splenocytes) (mouse) (UniProt Q9JHJ8); test: flow cytometry, RAG1-/- splenocytes, anti-CD11C stained subset
# [3] = target: GL50 (ICOS-ligand) on mouse cells (WEHI 231, undifferentiated CCE ES cells, Balb/C and RAG1 -/- splenocytes) (mouse) (UniProt Q9JHJ8); test: flow cytometry, Balb/C splenocytes, anti-CD24 stained subset
# [4] = target: GL50 (ICOS-ligand) on mouse cells (WEHI 231, undifferentiated CCE ES cells, Balb/C and RAG1 -/- splenocytes) (mouse) (UniProt Q9JHJ8); test: flow cytometry, Balb/C splenocytes, anti-CD11C stained subset
# [5] = target: GL50 (ICOS-ligand) on mouse cells (WEHI 231, undifferentiated CCE ES cells, Balb/C and RAG1 -/- splenocytes) (mouse) (UniProt Q9JHJ8); test: flow cytometry, Balb/C splenocytes, anti-CD19 stained subset
# [6] = target: GL50 (ICOS-ligand) on mouse cells (WEHI 231, undifferentiated CCE ES cells, Balb/C and RAG1 -/- splenocytes) (mouse) (UniProt Q9JHJ8); test: flow cytometry, indirect staining of undifferentiated CCE ES cells
# [7] = target: GL50 (ICOS-ligand) on mouse cells (WEHI 231, undifferentiated CCE ES cells, Balb/C and RAG1 -/- splenocytes) (mouse) (UniProt Q9JHJ8); test: flow cytometry, Balb/C splenocytes, anti CD40 stained subset
# [8] = target: GL50 (ICOS-ligand) on mouse cells (WEHI 231, undifferentiated CCE ES cells, Balb/C and RAG1 -/- splenocytes) (mouse) (UniProt Q9JHJ8); test: flow cytometry, Balb/C splenocytes, anti-CD8a stained subset
# [9] = target: GL50 (ICOS-ligand) on mouse cells (WEHI 231, undifferentiated CCE ES cells, Balb/C and RAG1 -/- splenocytes) (mouse) (UniProt Q9JHJ8); test: flow cytometry, Balb/C splenocytes, anti-CD4 stained subset
# [10] = target: GL50 (ICOS-ligand) on mouse cells (WEHI 231, undifferentiated CCE ES cells, Balb/C and RAG1 -/- splenocytes) (mouse) (UniProt Q9JHJ8); test: flow cytometry, Balb/C splenocytes, anti CD69 stained subset
# [11] = target: GL50 (ICOS-ligand) on mouse cells (WEHI 231, undifferentiated CCE ES cells, Balb/C and RAG1 -/- splenocytes) (mouse) (UniProt Q9JHJ8); test: flow cytometry, Balb/C splenocytes, anti-pan NK stained subset
# [12] = target: GL50 (ICOS-ligand) on mouse cells (WEHI 231, undifferentiated CCE ES cells, Balb/C and RAG1 -/- splenocytes) (mouse) (UniProt Q9JHJ8); test: flow cytometry, RAG1-/- splenocytes, anti class II stained subset
# [13] = target: GL50 (ICOS-ligand) on mouse cells (WEHI 231, undifferentiated CCE ES cells, Balb/C and RAG1 -/- splenocytes) (mouse) (UniProt Q9JHJ8); test: flow cytometry, RAG1-/- splenocytes, anti-CD4 stained subset
# [14] = target: GL50 (ICOS-ligand) on mouse cells (WEHI 231, undifferentiated CCE ES cells, Balb/C and RAG1 -/- splenocytes) (mouse) (UniProt Q9JHJ8); test: flow cytometry, RAG1-/- splenocytes, anti-pan NK stained subset
# [15] = target: GL50 (ICOS-ligand) on mouse cells (WEHI 231, undifferentiated CCE ES cells, Balb/C and RAG1 -/- splenocytes) (mouse) (UniProt Q9JHJ8); test: flow cytometry, Balb/C splenocytes, anti-CD11B stained subset
# [16] = target: GL50 (ICOS-ligand) on mouse cells (WEHI 231, undifferentiated CCE ES cells, Balb/C and RAG1 -/- splenocytes) (mouse) (UniProt Q9JHJ8); test: flow cytometry, RAG1-/- splenocytes, CD11b+ subset (text value; the table prints 31%)
# [17] = target: GL50 (ICOS-ligand) on mouse cells (WEHI 231, undifferentiated CCE ES cells, Balb/C and RAG1 -/- splenocytes) (mouse) (UniProt Q9JHJ8); test: flow cytometry, Balb/C splenocytes, anti class II stained subset
# [18] = target: GL50 (ICOS-ligand) on mouse cells (WEHI 231, undifferentiated CCE ES cells, Balb/C and RAG1 -/- splenocytes) (mouse) (UniProt Q9JHJ8); test: flow cytometry, titered staining of WEHI 231 cells
# [19] = target: GL50 (ICOS-ligand) on mouse cells (WEHI 231, undifferentiated CCE ES cells, Balb/C and RAG1 -/- splenocytes) (mouse) (UniProt Q9JHJ8); test: flow cytometry, RAG1-/- splenocytes, anti-CD45R/B220 stained subset
# [20] = target: GL50 (ICOS-ligand) on mouse cells (WEHI 231, undifferentiated CCE ES cells, Balb/C and RAG1 -/- splenocytes) (mouse) (UniProt Q9JHJ8); test: flow cytometry, RAG1-/- splenocytes, anti CD69 stained subset
# [21] = target: GL50 (ICOS-ligand) on mouse cells (WEHI 231, undifferentiated CCE ES cells, Balb/C and RAG1 -/- splenocytes) (mouse) (UniProt Q9JHJ8); test: flow cytometry, RAG1-/- splenocytes, anti-CD24 stained subset
# [22] = target: GL50 (ICOS-ligand) on mouse cells (WEHI 231, undifferentiated CCE ES cells, Balb/C and RAG1 -/- splenocytes) (mouse) (UniProt Q9JHJ8); test: flow cytometry, Balb/C splenocytes, anti-CD45R/B220 stained subset
# [23] = target: GL50 (ICOS-ligand) on mouse cells (WEHI 231, undifferentiated CCE ES cells, Balb/C and RAG1 -/- splenocytes) (mouse) (UniProt Q9JHJ8); test: flow cytometry, RAG1-/- splenocytes, anti-CD11B stained subset
binder,measurement,setting,value
B1,% ICOS-Ig positive,[1],10%
same,% ICOS-Ig positive,[2],55%
same,% ICOS-Ig positive,[3],94%
same,% ICOS-Ig positive,[4],43%
same,% ICOS-Ig positive,[5],97%
same,fluorescence shift over background,[6],0.5 log
same,% ICOS-Ig positive,[7],97%
same,% ICOS-Ig positive,[8],10%
same,% ICOS-Ig positive,[9],8%
same,% ICOS-Ig positive,[10],25%
same,% ICOS-Ig positive,[11],20%
same,% ICOS-Ig positive,[12],3%
same,% ICOS-Ig positive,[13],45%
same,% ICOS-Ig positive,[14],3%
same,% ICOS-Ig positive,[15],26%
same,% ICOS-Ig positive,[16],35%
same,% ICOS-Ig positive,[17],95%
same,concentration from which staining was minimally detectable,[18],1 µg/mL
same,% ICOS-Ig positive,[19],5%
same,% ICOS-Ig positive,[20],5%
same,% ICOS-Ig positive,[21],28%
same,% ICOS-Ig positive,[22],97%
same,% ICOS-Ig positive,[23],31%
